The source of these data is patent US20260124223A1, “CANCER IMMUNOTHERAPIES” (Northwestern University, priority 2022, published 2026).

The term Kd denotes the concentration at which binding is half-saturated.

In assay [1] the target is mouse FcγRIV protein (his-tagged) (mouse). Nature of the assay: ratio of SPR binding to mouse FcγRIV against inhibitory mouse FcγRIIB. For orientation: Surface plasmon resonance follows binding to a sensor surface in real time, without labels.
The target of assay [2] is mouse FcγRIIB protein (his-tagged) (mouse) (UniProt P08101). In words: SPR (Biacore T200), his-tagged receptor captured on anti-His CM5 chip, antibody injected.
mouse FcγRIIB protein (his-tagged) (mouse), sequence (P08101 30-210 limits assumed): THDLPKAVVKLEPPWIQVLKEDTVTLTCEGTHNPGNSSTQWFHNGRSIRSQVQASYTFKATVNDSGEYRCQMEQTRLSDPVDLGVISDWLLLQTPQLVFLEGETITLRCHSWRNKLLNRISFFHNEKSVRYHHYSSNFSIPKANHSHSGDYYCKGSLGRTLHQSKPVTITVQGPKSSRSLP
The target of assay [3] is mouse FcγRIV protein (his-tagged) (mouse). The assay is described as above.
The target of assay [4] is human FcγRIIB protein (his-tagged) (human) (UniProt P31994). The assay is described as above.
human FcγRIIB protein (his-tagged) (human), sequence (P31994 43-217 limits assumed): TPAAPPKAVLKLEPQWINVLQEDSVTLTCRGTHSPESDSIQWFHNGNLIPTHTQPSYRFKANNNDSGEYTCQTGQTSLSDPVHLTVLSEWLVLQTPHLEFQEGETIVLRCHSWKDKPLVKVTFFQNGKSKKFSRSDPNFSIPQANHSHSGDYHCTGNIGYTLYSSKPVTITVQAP
Assay [5] concerns the target human FcγRIIIA F158 protein (his-tagged) (human) (UniProt P08637). The description is as above.
Assay [6] has as its target human FcγRIIIA V158 protein (his-tagged) (human) (UniProt P08637). The description is as above.

mouse FcγRIV protein (his-tagged) (mouse), sequence (A0A0B4 entry or part of it limits assumed): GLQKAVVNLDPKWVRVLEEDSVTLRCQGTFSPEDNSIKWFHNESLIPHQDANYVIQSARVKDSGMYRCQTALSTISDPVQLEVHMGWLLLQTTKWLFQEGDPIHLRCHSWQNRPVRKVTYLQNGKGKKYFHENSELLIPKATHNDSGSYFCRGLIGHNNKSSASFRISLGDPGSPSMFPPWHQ
human FcγRIIIA V158 protein (his-tagged) (human), sequence (P08637 17-208 F176V limits assumed): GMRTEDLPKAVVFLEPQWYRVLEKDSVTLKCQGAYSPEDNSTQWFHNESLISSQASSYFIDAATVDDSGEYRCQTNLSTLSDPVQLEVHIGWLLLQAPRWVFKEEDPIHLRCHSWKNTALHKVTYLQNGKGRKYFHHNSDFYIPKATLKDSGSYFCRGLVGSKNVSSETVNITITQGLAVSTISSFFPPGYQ
human FcγRIIIA F158 protein (his-tagged) (human), sequence (P08637 17-208 limits assumed): as the sequence (P08637 17-208 F176V limits assumed) above, with V160F counted along it

In the case of “Fc-enhanced mouse reactive anti-CTLA4 antibody (clone 9D9, mIgG2b.DLE) (from UniProt P01867 1-335)”, the A/I ratio (IV/IIB) in assay [1] was 4180. In addition, the Kd was 7110 nM in assay [2] and 1.7 nM in assay [3].
“anti-mouse CTLA-4 antibody, clone 9D9, mouse IgG2b (unmodified)”: the A/I ratio (IV/IIB) in assay [1] turned out to be 95. For the same substance, the equilibrium dissociation constant (Kd) in assay [2] is 5800 nM; in assay [3] it was 61.3 nM.
On to “Fc-enhanced anti-human CTLA-4 antibody (hIgG1.DLE) (from UniProt P01857 1-330)”, for which the Kd turned out to be 3230 nM in assay [4], 2.83 nM in assay [5] and 2.76 nM in assay [6].
